Assay results published in patent publication US20240150495A1.
Changes are numbered by the printed parent chain.

Experiments:
[1] = biological target: T1, synthetic peptide Rp10-L, a mimotope of B-cell molecular marker CD20; assay: ELISA, periplasmic extract, Rp10-L 0.81 µg/ml; well without peptide 0.265
T1 sequence (peptide): ITPWPHWLERSS

[2] = biological target: T1, synthetic peptide Rp10-L, a mimotope of B-cell molecular marker CD20; assay: ELISA, periplasmic extract, Rp10-L 1.63 µg/ml; well without peptide 0.265
[3] = biological target: T1, synthetic peptide Rp10-L, a mimotope of B-cell molecular marker CD20; assay: ELISA, periplasmic extract, Rp10-L 12.5 µg/ml; well without peptide 0.265
[4] = biological target: T1, synthetic peptide Rp10-L, a mimotope of B-cell molecular marker CD20; assay: ELISA, periplasmic extract, Rp10-L 25.0 µg/ml; well without peptide 0.265
[5] = biological target: T1, synthetic peptide Rp10-L, a mimotope of B-cell molecular marker CD20; assay: ELISA, periplasmic extract, Rp10-L 3.13 µg/ml; well without peptide 0.265
[6] = biological target: T1, synthetic peptide Rp10-L, a mimotope of B-cell molecular marker CD20; assay: ELISA, periplasmic extract, Rp10-L 50.0 µg/ml; well without peptide 0.265
[7] = biological target: T1, synthetic peptide Rp10-L, a mimotope of B-cell molecular marker CD20; assay: ELISA, periplasmic extract, Rp10-L 6.25 µg/ml; well without peptide 0.265
[8] = biological target: T1, synthetic peptide Rp10-L, a mimotope of B-cell molecular marker CD20; assay: ELISA, periplasmic lysate on coated Rp10-L, single well; plate A background 0.027
[9] = biological target: T1, synthetic peptide Rp10-L, a mimotope of B-cell molecular marker CD20; assay: ELISA, periplasmic extract, Rp10-L 0.81 µg/ml; well without peptide 0.469
[10] = biological target: T1, synthetic peptide Rp10-L, a mimotope of B-cell molecular marker CD20; assay: ELISA, periplasmic extract, Rp10-L 1.63 µg/ml; well without peptide 0.469
[11] = biological target: T1, synthetic peptide Rp10-L, a mimotope of B-cell molecular marker CD20; assay: ELISA, periplasmic extract, Rp10-L 12.5 µg/ml; well without peptide 0.469
[12] = biological target: T1, synthetic peptide Rp10-L, a mimotope of B-cell molecular marker CD20; assay: ELISA, periplasmic extract, Rp10-L 25.0 µg/ml; well without peptide 0.469
[13] = biological target: T1, synthetic peptide Rp10-L, a mimotope of B-cell molecular marker CD20; assay: ELISA, periplasmic extract, Rp10-L 3.13 µg/ml; well without peptide 0.469
[14] = biological target: T1, synthetic peptide Rp10-L, a mimotope of B-cell molecular marker CD20; assay: ELISA, periplasmic extract, Rp10-L 50.0 µg/ml; well without peptide 0.469
[15] = biological target: T1, synthetic peptide Rp10-L, a mimotope of B-cell molecular marker CD20; assay: ELISA, periplasmic extract, Rp10-L 6.25 µg/ml; well without peptide 0.469
[16] = biological target: T1, synthetic peptide Rp10-L, a mimotope of B-cell molecular marker CD20; assay: ELISA, periplasmic lysate on coated Rp10-L, single well; plate D background 0.035

B1: CH3 clone A21 (mutated human IgG1 CH3 domain, CH3+3 library) (designed binder, not shown: small tags and cut ends)
chain: MAPREPQVYTLPPSRDELVDGQVSLTCLVKGFYPSDIAVEWESNGQPENNYKTTPPVLDSDGSFFLYSKLTVPWGPRDRWWPGNVFSCSVMHEALHNHYTQKSLSLSPGKAAA
With B1 the ELISA absorbance [1] was 0.362, the ELISA absorbance [2] was 0.383 and the ELISA absorbance [3] was 0.315. The ELISA absorbance [4] was 0.335, the ELISA absorbance [5] was 0.352 and the ELISA absorbance [6] was 0.398. The ELISA absorbance [7] was 0.343 and the A492/620 [8] was 0.395 A492/620.

B2: CH3 clone D39 (mutated human IgG1 CH3 domain, CH3+3 library) (designed binder, not shown: small tags and cut ends)
chain: B1 chain with V19G, D20W, G21W, P73Q, W74Q, G75K, R77F, D78A, W81T, P82D
B2 showed an ELISA absorbance [9] of 0.66, an ELISA absorbance [10] of 0.719 and an ELISA absorbance [11] of 0.77. It also gave an ELISA absorbance [12] of 0.868, an ELISA absorbance [13] of 0.719 and an ELISA absorbance [14] of 0.765. It also gave an ELISA absorbance [15] of 0.694 and an A492/620 [16] of 0.448 A492/620.
